Experiment [1] addresses T1, Biotinylated human TSLP (human, biotinylated).
T1 construct: also called hTSLP; thymic stromal lymphopoietin
The experiment can be described thus: SPR, biotinylated hTSLP on streptavidin chip; Example 14, Ac-(SEQ ID NO: 12). Background: SPR reads the build-up and loss of mass on a sensor chip optically.

Experiment [2] deals with T2, Biotinylated human TSLP (hTSLP(29-159)-Avi) (human, biotinylated (C-terminal Avi-tag)).
T2 construct: also called thymic stromal lymphopoietin
T2 sequence (chain, as listed by the source limits assumed): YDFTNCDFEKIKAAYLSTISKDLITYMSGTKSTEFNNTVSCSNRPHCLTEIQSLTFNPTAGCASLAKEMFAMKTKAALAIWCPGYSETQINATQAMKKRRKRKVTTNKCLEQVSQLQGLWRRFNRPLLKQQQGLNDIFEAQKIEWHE
The experiment in a line: SPR, biotinylated hTSLP on streptavidin chip, peptide injected.

The target of experiment [3] is TSLP (as used in the human PBMC assay) (UniProt Q969D9 29-159). The experiment can be described thus: cell-based or functional assay.
The target in experiment [4] is T1, Biotinylated human TSLP. The experiment can be described thus: SPR, biotinylated hTSLP on streptavidin chip; Example 153, Ac-(SEQ ID NO: 112).
Experiment [5] has as its target T1, Biotinylated human TSLP. The experiment in a line: SPR, biotinylated hTSLP on streptavidin chip; Example 148, Ac-(SEQ ID NO: 107).
Experiment [6] has as its target T1, Biotinylated human TSLP. The experiment can be described thus: SPR, biotinylated hTSLP on streptavidin chip; Example 146, Ac-(SEQ ID NO: 105).
The target in experiment [7] is T1, Biotinylated human TSLP. The experiment in a line: SPR, biotinylated hTSLP on streptavidin chip; Example 11, Ac-(SEQ ID NO: 9).
The target of experiment [8] is T1, Biotinylated human TSLP. The experiment in a line: SPR, biotinylated hTSLP on streptavidin chip; Example 154, Ac-(SEQ ID NO: 113).
Experiment [9] concerns the target T1, Biotinylated human TSLP. The experiment in a line: SPR, biotinylated hTSLP on streptavidin chip; Example 157, Ac-(SEQ ID NO: 115).

*1 amine or outer side, *2 acyl side, *3 side chain or, on linkers, in order; H or OH if unused. Bridges are numbered along the chain shown (N, C = ends). Where no end group is shown, it is not given here. [ ]: non-standard residue; d: D form. The star is where a group is joined. X1 = N3CH2C(O)NH(CH2CH2O)3CH2CH2(CO), [N-]=[N+]=NCC(=O)NCCOCCOCCOCCC(=O)*; N3CH2C(O)NH(CH2CH2O)2CH2C(O) = [N-]=[N+]=NCC(=O)NCCOCCOCC(=O)*; TATA = O=C(CC[*:1])N1CN(C(=O)CC[*:2])CN(C(=O)CC[*:3])C1; Trp(1-Me) = Cn1cc(C[C@H](N)C(=O)O)c2ccccc21; Arg(Me2a) = CN(C)C(=N)NCCC[C@H](N)C(=O)O; Phe(4-F) = N[C@@H](Cc1ccc(F)cc1)C(=O)O; tBuAla = CC(C)(C)C[C@H](N)C(=O)O; NMeA = CN[C@@H](C)C(=O)O; Octanoyl = CCCCCCCC(=O)*

The source of these data is patent publication US20220363718A1 (Bicycle, published 2022).

The term Kd denotes a measure of binding affinity in units of concentration. A low value points to tighter binding.

T1 sequence (chain, as listed by the source limits assumed): as above

B1: Example 14 (peptide)
peptide: CQWLEDCWRGXC
modifications: N-term acetyl; CQWLEDCWRG[4-ClPhe]C as printed; 3 Cys on TATA
Regarding B1, binding with Biotinylated human TSLP [1] was characterised by a dissociation constant (Kd) of 6 nM.

B2: Example 208 (peptide)
peptide: ACDWDWDYDCWLPCFAE
modifications: linker 2-10-14 via TATA; not fully specified (C-terminus)
With B2, in [2], the Kd came out at 340 nM.

B3: Example 203 (peptide)
peptide: SQECQWNWTYDCWLGCA
modifications: linker 4-12-16 via TATA
Regarding B3, the Kd in [2] is 320 nM.

B4: Example 228 (peptide)
peptide: CDWHWEYDCWLSCGAGESS
modifications: linker 1-9-13 via TATA; not fully specified (C-terminus)
B4 came in with a Kd in experiment [2] of 2300 nM.

B5: Example 230 (peptide)
peptide: ACALDPWVCPQWWDCA
modifications: linker 2-9-15 via TATA; not fully specified (C-terminus)
In experiment [2], B5 gave a Kd of 960 nM.

B6: Example 221 (peptide)
peptide: ACDWHWEYDCWLSCEPETGQA
modifications: linker 2-10-14 via TATA
As for B6, the “CCL17 % Inhibition @ 10 µM, 666 pM TSLP” value in experiment [3] is -10%.

B7: Example 232 (peptide)
peptide: ACDELDIPCWIFKTLCA
modifications: linker 2-9-16 via TATA; not fully specified (C-terminus)
Turning to B7, the affinity in experiment [2], expressed as Kd, was 8300 nM.

B8: Example 215 (peptide)
peptide: SPTEPPCDWHWEYDCWLSC
modifications: linker 7-15-19 via TATA; not fully specified (C-terminus)
In the case of B8, the Kd in [2] was determined as 240 nM.

B9: Example 153 (peptide)
peptide: CQWLEDCWRGXC
modifications: not fully specified; N-term acetyl; CQWLEDCWRG[PentFPhe]C as printed; 3 Cys on TATA
In the experiment with Biotinylated human TSLP [4], B9 registered a Kd of 2700 nM.

B10: Example 250 (peptide)
peptide: X1-C[NMeA][Trp(1-Me)][tBuAla]QDC[Trp(1-Me)][Arg(Me2a)]G[Phe(4-F)]C-NH2
modifications: linker 1-7-12 via TATA; also: trimer: three peptides clicked via N-terminal azido linker to N-but-3-yn-1-yl-N2,N6-dipent-4-ynoyl-L-lysinamide core
notes: Trimer of identical bicyclic peptides on a tri-alkyne lysinamide core (formula with F3, S9)
The molecule B10 displayed a Kd in experiment [2] of 0.027 nM. Besides, in experiment [3], the “CCL17 % Inhibition @ 10 µM, 50 pM TSLP” value worked out at 83% and the “CCL17 % Inhibition @ 10 µM, 400 pM TSLP” value came to 59%.

B11: Example 200 (peptide)
peptide: DHDCTWNWEYDCWLDCA
modifications: linker 4-12-16 via TATA
For B11, in experiment [3], the “CCL17 % Inhibition @ 10 µM, 666 pM TSLP” value is -42%.

B12: Example 199 (peptide)
peptide: ACDWHWEYDCWLSCA
modifications: linker 2-10-14 via TATA
With B12, the “CCL17 % Inhibition @ 10 µM, 666 pM TSLP” value in experiment [3] is -3%.

B13: Example 251 (peptide)
peptide: {N3CH2C(O)NH(CH2CH2O)2CH2C(O)}-C[NMeA][Trp(1-Me)][tBuAla]QDC[Trp(1-Me)][Arg(Me2a)]G[Phe(4-F)]C-NH2
modifications: linker 1-7-12 via TATA; also: dimer: peptides clicked via N-terminal azido linker to N2,N6-dipent-4-ynoyl-L-lysine core (source also calls it trimeric)
notes: Claim 16 speaks of a dimeric or trimeric moiety
For the molecule B13, the Kd in experiment [2] came out at 0.14 nM. Also, in experiment [3], the “CCL17 % Inhibition @ 10 µM, 50 pM TSLP” value is 87% and the “CCL17 % Inhibition @ 10 µM, 400 pM TSLP” value turned out to be 85%.

B14: Example 227 (peptide)
peptide: CDWHWEYDCWLSCANSEFE
modifications: linker 1-9-13 via TATA; not fully specified (C-terminus)
For B14, the Kd in experiment [2] is 740 nM.

B15: Example 222 (peptide)
peptide: CDWHWEYDCWLSCGDMSVS
modifications: linker 1-9-13 via TATA; not fully specified (C-terminus)
For the molecule B15, the affinity in [2], expressed as Kd, was 450 nM.

B16: Example 212 (peptide)
peptide: ACDWHWEYDCWLSCDPSSKQA
modifications: linker 2-10-14 via TATA
The molecule B16 had a Kd in [2] of 250 nM.

B17: Example 209 (peptide)
peptide: DEQHHECDWHWEYDCWLSCA
modifications: linker 7-15-19 via TATA; not fully specified (C-terminus)
Take B17: binding in experiment [2] was characterised by a dissociation constant (Kd) of 910 nM.

B18: Example 220 (peptide)
peptide: ANDCVWHWEYDCWLDCA
modifications: linker 4-12-16 via TATA; not fully specified (C-terminus)
On to B18, for which the Kd in experiment [2] was found to be 340 nM.

B19: Example 231 (peptide)
peptide: ACQEHDWYCLLYQPECA
modifications: linker 2-9-16 via TATA; not fully specified (C-terminus)
B19 registered a dissociation constant (Kd) in experiment [2] of 1800 nM.

B20: Example 210 (peptide)
peptide: SNATKQCDWHWEYDCWLSCA
modifications: linker 7-15-19 via TATA; not fully specified (C-terminus)
Molecule B20 displayed a Kd in experiment [2] of 180 nM.

B21: Example 15 (peptide)
peptide: Octanoyl-C[NMeA][Trp(1-Me)][tBuAla]QDC[Trp(1-Me)][Arg(Me2a)]G[Phe(4-F)]C-NH2
modifications: linker 1-7-12 via TATA
SMILES: CCCCCCCC(=O)N[C@H]1CSCCC(=O)N2CN3CN(C2)C(=O)CCSC[C@H](NC(=O)[C@H](CC(=O)O)NC(=O)[C@H](CCC(N)=O)NC(=O)[C@H](CC(C)(C)C)NC(=O)[C@H](Cc2cn(C)c4ccccc24)NC(=O)[C@H](C)N(C)C1=O)C(=O)N[C@@H](Cc1cn(C)c2ccccc12)C(=O)N[C@@H](CCCNC(=N)N(C)C)C(=O)NCC(=O)N[C@@H](Cc1ccc(F)cc1)C(=O)N[C@H](C(N)=O)CSCCC3=O
For B21, in [3], the “CCL17 % Inhibition @ 10 µM, 50 pM TSLP” value amounted to 58% and the “CCL17 % Inhibition @ 10 µM, 400 pM TSLP” value was determined as 64%.

B22: Example 11 (peptide)
peptide: CQWLEDCWRGXC
modifications: not fully specified; Ac-CQWLEDCWRG[3,4diClPhe]C; 3 Cys cyclised with TATA
Consider B22, for which, in experiment [3], the “CCL17 % Inhibition @ 10 µM, 666 pM TSLP” value worked out at 43%.

B23: Example 204 (peptide)
peptide: AETCKWMWEYDCWLSCA
modifications: linker 4-12-16 via TATA
In turn, B23 yielded a Kd in experiment [2] of 100 nM.

B24: Example 148 (peptide)
peptide: CQWLEDCWRGXC
modifications: N-term acetyl; CQWLEDCWRG[BnA]C as printed; 3 Cys on TATA
B24 registered a Kd with Biotinylated human TSLP [5] of 1100 nM.

B25: Example 229 (peptide)
peptide: ACSLDPWSCHNWWTCA
modifications: linker 2-9-15 via TATA; not fully specified (C-terminus)
B25 had a Kd in experiment [2] of 9900 nM.

B26: Example 146 (peptide)
peptide: CQWLEDCWRGXC
modifications: N-term acetyl; CQWLEDCWRG[2PyrA]C as printed; 3 Cys on TATA
For the molecule B26, the Kd with Biotinylated human TSLP [6] came out at 910 nM.

B27: Example 216 (peptide)
peptide: CDWHWEYDCWLSCEPETGQ
modifications: linker 1-9-13 via TATA; not fully specified (C-terminus)
In [2], B27 displayed a dissociation constant (Kd) of 320 nM.

B28: Example 217 (peptide)
peptide: NRSPSECDWHWEYDCWLSC
modifications: linker 7-15-19 via TATA; not fully specified (C-terminus)
B28: in experiment [2], the Kd was determined as 860 nM.

B29: Example 223 (peptide)
peptide: CDWHWEYDCWLSCYDNEMS
modifications: linker 1-9-13 via TATA; not fully specified (C-terminus)
Molecule B29 gave a dissociation constant Kd in experiment [2] of 3000 nM.

B30: Example 11 (peptide)
peptide: CQWLEDCWRGXC
modifications: not fully specified; N-term acetyl; CQWLEDCWRG[3,4diClPhe]C as printed; 3 Cys on TATA
B30 returned a Kd in the experiment with Biotinylated human TSLP [7] of 5.8 nM.

B31: Example 193 (peptide)
peptide: ACRDLDPWTCSSWWLCADGLYDA
modifications: linker 2-10-16 via TATA
Take B31: the “CCL17 % Inhibition @ 10 µM, 666 pM TSLP” value in experiment [3] is 47%.

B32: Example 201 (peptide)
peptide: ADGCEWNWAYDCWLGCA
modifications: linker 4-12-16 via TATA
B32 displayed a Kd in experiment [2] of 170 nM.

B33: Example 206 (peptide)
peptide: ACDWNWTYDCWLDCAPI
modifications: linker 2-10-14 via TATA
As for B33, binding in experiment [2] was put at a Kd of 430 nM.

B34: Example 154 (peptide)
peptide: CQWXEDCWRGXC
modifications: not fully specified; N-term acetyl; CQW[LMe]EDCWRG[4-FPhe]C as printed; 3 Cys on TATA
Consider B34, for which the Kd with Biotinylated human TSLP [8] came out at 2900 nM.

B35: Example 218 (peptide)
peptide: Ac-CDWHWEYDCWLSC
modifications: linker 1-9-13 via TATA; not fully specified (C-terminus)
B35 registered a dissociation constant (Kd) in experiment [2] of 2000 nM.

B36: Example 16 (peptide)
peptide: CQXLEDCXRGXC
modifications: not fully specified; Ac-CQ[TrpMe]LEDC[TrpMe]RG[4-FPhe]C; 3 Cys cyclised with TATA
As to B36, the “CCL17 % Inhibition @ 10 µM, 666 pM TSLP” value in experiment [3] is 52%.

B37: Example 14 (peptide)
peptide: CQWLEDCWRGXC
modifications: Ac-CQWLEDCWRG[4-ClPhe]C; 3 Cys cyclised with TATA
In the case of B37, the “CCL17 % Inhibition @ 10 µM, 666 pM TSLP” value in experiment [3] turned out to be 14%.

B38: Example 157 (peptide)
peptide: CQWLEDCWRGXC
modifications: not fully specified; N-term acetyl; CQWLEDCWRG[4-PyrA]C as printed; 3 Cys on TATA
The molecule B38 yielded a Kd with Biotinylated human TSLP [9] of 3900 nM.
